From patent publication US20220017620A1 (SHANGHAI FUDAN ZHANGJIANG BIO PHARMACEUTICAL, published 2022) come the findings set out here.

To fix the notation:
B1: P1D1 scFv (scFv)
scFv: QVQLVQSGAEVKKPGESLKISCKGSGYSFTSYWIGWVRQMPGKGLEWMGIIYPGDSDTRYSPSFQGQVTISADKSISTAYLQWSSLKASDTAMYYCARRSVAGLDYWGQGTLVTVSSGSASAPTLGQGGGGGSGGGGSGGGGSKTVVTQPPSASGTPGQRVTISCSGSSSNIGSKYVYWYQQLPGTAPRLLIYRNNQRPSGVPDRFSGSKSGTSASLAISGLRSEDESDYYCASWDDRLKGYAFGTGTKVTVL
B2: P3B9 scFv (scFv)
scFv: QIQLVQSGAEVKKPGESLKISCKGSGYSFTSYWIGWVRQMPGKGLEWMGIIYPGDSDTRYSPSFQGQVTISADKSISTAYLQWSSLKASDTAMYYCARRTPRGMDVWGQGTTVTVSSGSASAPTLGQGGGGGSGGGGSGGGGSQAVLTQPPSASGTPGQRVTISCSGSSSNIGSNYVYWYQQLPGTAPKLLIYRNNQRPSGVPDRFSGSKSGTSASLAISGLRSEDEADYYCAAWDDSLSGWVFGGGTKLTVL
B3: P2E5 scFv (scFv)
scFv: QVTLKESGGGLVQPGGSLRLSCAASGFTFSNSYMTWVRQAPGMGLEWVASMKPDGSVKHYVDSVKGRFTISRDNTKNSLDLQMNSLRAEDTAVYYCSSYDTRWGWFDPWGEGTLVTVSSGSASAPTLGQGGGGGSGGGGSGGGGSQTVVTQEPSFSVSPGGTVTLTCGLNSGSVSTSYFPSWYQQTPGQAPRTLIYNTNTRSSGVPDRFSGSILGNKAALTITGAQADDESDYYCLLYMDSGPHWVFGGGTKLTVL
B4: P2E3 scFv (scFv)
scFv: QVQLVQSGAEVKKPGESLKISCKGSGYSFTSYWIGWVRQMPGKGLEWMGIIYPGDSDTRYSPSFQGQVTISADKSISTAYLQWSSLKASDTAMYYCARRSREGFDPWGQGTLVTVSSGSASAPTLGQGGGGGSGGGGSGGGGSQAVLTQPSSASGTPGQRVTMSCSGAASNIGKNFVYWYQQLPGRAPRLLISRNIQRPSEVPDRFSGSKSGTSASLAISGLQSEDEADYYCAAWDDSLNGFVFGTGTAVTVL
B5: P1G2 scFv (scFv)
scFv: QVQLQQSGAEVKKPGSSVKVSCKASGGTFSSYAISWVRQAPGQGLEWMGRIIPILGIANYAQKFQGRVTITADKSTSTAYMELSSLRSEDTAVYYCAVNYYDSSGYYSDYWGQGTLVTVSSGSASAPTLGQGGGGGSGGGGSGGGGSSYELTQPPSASGSPGQSVTISCTGTSSDVGGYNYVSWYQQHPGKAPRLMIYGVSQRPSGVPDRFSGSKSGNTASLTVSGLQAEDEADYYCSSYANNNYVFGTGTKVTVL
B6: P9A12 full-length IgG1 antibody (antibody, V domains shown)
VH: QVTLKESGGGLVQPGGSLRLSCAASGFTFSSYAMSWVRQAPGKGLEWVSAISGSGGSTYYADSVKGRFTISRDNSKNTLYLQMNSLRAEDTAVYYCARGAGIDAFDIWGQGTMVTVSS
VL: QSALTQPASVSGSPGQSITISCTGTSSDVGAYNYVTWYQQYPGKAPKLMIYDVSERPSGVSNRFSGSKSGNTASLTISGLQAEDEADYYCSSFTSSISWVFGGGTKLTVL
B7: P7F10 full-length IgG1 antibody (antibody, V domains shown)
VH: QVQLQQSGGGLVQPGGSLRLSCAASGFTFSSYPMSWVRQAPGKGLEWVSVISGSGGSTFYADSVKGRFTISRDNSKNTLYLQVNSLRAEDTAVYYCAKDGRTLSGMDVWGQGTTVTVSS
VL: QPVLTQPPSASGTPGQRVTISCSGSSSNIGSNPVNWYQQLPGTAPKLLIYNNNQRPSGVPDRFSGSKSGTSGSLAISGLQSEDEAHYYCAAWDVSLKEVFGGGTKVTVL

In the first assay the target is T1, B7-H3 antigen H4M (human 4Ig B7-H3 amino acids 27-461 with N-terminal 10 His tag and C-terminal Myc tag) (human, UniProt Q5ZPR3 27-461, Biotinylated in the phage ELISA (labeling amount approximately 2.5, sites not stated); not biotinylated in the scFv protein ELISA).
T1 construct: Expressed in Expi293; also called biotinylated B7-H3 antigen H4M; not shown: any linker between the tags and the B7-H3 part is not described
T1 sequence: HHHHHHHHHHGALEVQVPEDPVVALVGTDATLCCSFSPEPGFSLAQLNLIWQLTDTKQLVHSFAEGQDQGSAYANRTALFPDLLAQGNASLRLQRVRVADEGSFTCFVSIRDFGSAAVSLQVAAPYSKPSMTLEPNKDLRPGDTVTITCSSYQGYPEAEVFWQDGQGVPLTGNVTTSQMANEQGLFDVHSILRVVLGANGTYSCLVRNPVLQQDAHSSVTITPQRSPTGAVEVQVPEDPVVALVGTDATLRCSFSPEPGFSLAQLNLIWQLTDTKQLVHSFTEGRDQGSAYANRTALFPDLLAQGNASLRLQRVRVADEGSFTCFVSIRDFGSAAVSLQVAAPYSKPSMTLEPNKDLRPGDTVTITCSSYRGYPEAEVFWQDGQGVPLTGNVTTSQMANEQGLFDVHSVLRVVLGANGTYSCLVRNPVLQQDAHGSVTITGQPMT
As to the kind of experiment: phage ELISA, scFv displayed on phage, biotinylated H4M captured on streptavidin. Here is the method:
Phage ELISA screening: streptavidin with a concentration of 1 mg/ml was taken and dissolved at room temperature, after being mixed, it was diluted gradually with coating buffer to 5 μg/ml. 100 μL/well of which was then pipetted into each well in a 96-well plate, and 100 μL coating buffer only were pipetted into another 3 wells as a blank control, incubated overnight at 2-8° C. The biotinylated B7-H3 antigen H4M was taken and diluted with 0.5% BSA-PBST diluent to […], then 100 μL of which at a concentration of 20 ng/ml was pipetted into the streptavidin-coated wells, and placed into a microplate shaker. After shaking at 37° C. and 600 rpm for 1 hour, the liquid was discarded, the plate was washed for 3 times with washing buffer and pat dry. The positive phage obtained in the second or third round of panning was taken and dissolved at room temperature, after being mixed, it was diluted 500 times with the diluent. The diluted phage was aliquoted into the microtiter plate at an amount of 100 μL/well, and placed in a microplate shaker, incubating at 37° C. and 600 rpm for 1 hour. After discarding the liquid, the plate was washed for 3 times with washing buffer. Then 100 μL of diluted HRP/Anti-M137 enzyme-linked antibody was aliquoted into each well, placed into the microplate shaker, incubating at 37° C., 600 rpm for 1 hour. After discarding the liquid, the plate was washed for 3 times. Then TMB chromogenic solution was aliquoted in at 100 μL/well and incubated for color development for 15 minutes, then 1 mol/L H₂SO₄ stop solution was aliquoted at 100 μl/well to stop the reaction. A microplate reader was used to measure the absorbance at 450 nm with a wavelength of 650 nm as the reference wavelength.
(In general: ELISA stands for enzyme-linked immunosorbent assay.)
Take B1: the “ELISA signal value of Phage scFv” value stood at 3.65 absorbance 450 nm. Same read-out and setting: the figure for B2 is 3.09 absorbance 450 nm. On the same count and under the same terms, the figure for B3 is 0.74 absorbance 450 nm.

For B4, the “ELISA signal value of Phage scFv” value is 3.54 absorbance 450 nm. On to B5, for which the “ELISA signal value of Phage scFv” value was 3.55 absorbance 450 nm.

Another assay addresses T2, IgV domain of B7-H3 (human, UniProt Q5ZPR3 30-130).
T2 sequence: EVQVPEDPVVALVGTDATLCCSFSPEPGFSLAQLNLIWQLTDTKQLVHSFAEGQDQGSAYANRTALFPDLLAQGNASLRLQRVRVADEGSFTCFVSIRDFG
As to the kind of experiment: ELISA on coated antigen, IgG1 antibody. Here is the method:
Protein binding: 100 μL of antigen B7-H3 (R&D) at 20 ng/ml was coated onto microplate, incubated at 2-8° C. overnight. Subsequently, 100 μL of the prepared full-length IgG1 antibody described above was added with a total of 8 concentrations started from 2000 ng/ml and serially diluted with 3-fold, incubating at 37° C., 600 rpm for 1 hour. After the plate was washed for three times, Goat anti human IgG (Fc)-HRP enzyme-linked antibody was added and the plate was shook at 37° C. and 600 rpm for 1 hour. After the plate was washed for 4 times, TMB chromogenic solution was aliquoted in and incubated for 10 minutes, then 1 mol/L […] stop solution at 100 μL/well was aliquoted to stop the reaction and the absorbance was measured.
The molecule B6 returned an ELISA signal value of 0.3 to 0.5 elisasignalvalue. As to B7, the ELISA signal value fell in the range of 0.6 to 1.5 elisasignalvalue.

Another assay has as its target T1, B7-H3 antigen H4M (human 4Ig B7-H3 …). Description: scFv protein ELISA on coated H4M. The protocol:
ELISA screening of scFv protein: B7-H3 antigen H4M was taken and dissolved at room temperature, then diluted with coating buffer to 2 ng/ml, and aliquoted into a hydrophobic enzyme-labeled plate at 100 μL/well, while 100 μL coating buffer only were pipetted into another 3 wells as a blank control, incubated overnight at 2-8° C. 100 μL of scfv protein sample was pipetted into each well, then the plate was placed into the microplate shaker, incubating for 1 hour at 37° C. and 600 rpm. After discarding the liquid, the plate was washed for 3 times with washing buffer. Then diluted enzyme-linked antibody was aliquoted into each well at 100 μL/well, placed into the microplate shaker, incubating at 37° C., 600 rpm for 1 hour. After discarding the liquid, the plate was washed for 3 times. Then TMB chromogenic solution was aliquoted in at 100 μL/well and incubated for 15 minutes, then 1 mol/L H₂SO₄ stop solution was aliquoted at 100 μL/well to stop the reaction. A microplate reader was used to measure the absorbance at 450 nm with a wavelength of 650 nm as the reference wavelength.
For B1, the “ELISA signal value of protein scFv” value was found to be 2.97 absorbance 450 nm. The same measure, in the same setting: with B2 the figure was 3.39 absorbance 450 nm; with B3, 0.84 absorbance 450 nm; with B4, 3.58 absorbance 450 nm. Still for that read-out and setting: with B5 the figure was 0.54 absorbance 450 nm.
